Results published in US20210205286A1 (UNM RAINFOREST INNOVATIONS, published 2021).

What was measured:
[1] = target: T1, LAMP2 (endogenous) (UniProt P13473 29-410, limits assumed, glycosylated (binding told as glycan-dependent)); experiment: co-IP, anti-FLAG IP, blot for endogenous LAMP2, HEK293T, 1 mM LLOMe 30 min (FIG. 2B)
T1 construct: Integral lysosomal membrane glycoprotein
Experimental: (A) APEX2 proximity biotinylation analysis. […] Biotinylated proteins were then affinity-isolated on streptavidin beads and analyzed by immunoblotting in response to LLOMe. (B) Co-immunoprecipitation (Co-IP) analysis of interactions between LAMP2 and Gal9. HEK293T cells expressing FLAG-tagged Gal9 or glycan recognition mutant forms of Gal9 (individual R65A, R239A, or double/combined R65A/R239A were treated with 1 mM LLOMe for 30 min in full medium. IP, anti-FLAG antibody; immunoblotting with endogenous LAMP2. (C) Immunofluorescence confocal microscopy visualization of Gal9 puncta in Hula cells transfected with FLAG-Gal9^WT or double mutant FLAG-Gal9^{R65A/R239A} and treated with lysosomal damaging agent (1 mM LLOMe) in full medium for 30 min. Cells were immunostained for FLAG-Gal9. Scale bar, 10 μM . (D) Analysis of FLAG-Gal9 puncta formation in Huh7 WT cells transfected with FLAG-Gal9 and respective mutants. Cells as in (C) were treated as in (C), measured by FICM (blue: nuclei, Hoechst 33342; green: anti-FLAG antibody, Alexa-488). White masks, computer algorithm-defined cell boundaries; green masks, computer-identified Gal9 puncta. (E) Immunofluorescence confocal microscopy visualization of Ub puncta in Gal9WT^Huh7 and Gal9KO^Huh7 cells complemented with FLAG-Gal9^WT or FLAG-Gal9^{R65A/R239A}. […] (F) Endogenous Ub puncta quantified by HCM. […]

[2] = target: T2, USP9X (endogenous) (UniProt Q93008 1-2554, limits assumed); experiment: co-IP, anti-FLAG IP, blot for endogenous USP9X, HEK293T (FIG. 3C)
T2 construct: also called deubiquitinating enzyme USP9X; DUB USP9X

[3] = target: T1, LAMP2 (endogenous); experiment: co-IP, anti-GFP IP of GFP-tagged galectins, blot for endogenous LAMP2 (FIG. S2B)
Description: (B) Co-IP analysis of galectins and LAMP2. Cells expressing GFP-tagged galectins were subjected to anti-GFP immunoprecipitation followed by immunoblotting for endogenous LAMP2. (C) Schematic, strategy for stable HeLa Flp-In Gal9^Tet-ON which stably express mCherry-Gal9 induced by tetracycline. HeLa Flp-In Gal9^Tet-ON cells treated with LLOMe in a time dependent manner quantified by HCM. (D) HCM visualization of mCherry-Gal9 localization relative to LAMP2-positive lysosomes. Cells as in (C) were treated with LLOMe for 30 min in full medium and immunostained for endogenous LAMP2 and mCherry Gal9. (E) Immunofluorescence confocal microscopy visualization of mCherry-Gal9 localization relative to LAMP2-positive lysosomes. Cells as in (D) immunostained for endogenous LAMP2 and mCherry Gal9. Scale bar, 10 μM. (F) HCM visualization of mCherry-Gal9 localization relative to endogenous Ub puncta. Cells as in (C) were treated with LLOMe for 30 min in full medium and immunostained for endogenous Ub and mCherry Gal9. (G) Immunofluorescence confocal microscopy visualization of mcherry-Gal9 localization relative to endogenous Ub and LAMP1-positive lysosomes. Cells as in (C) were treated with LLOMe for 30 min in full medium and immunostained for endogenous Ub, LAMP1 and mCherry Gal9. Scale bar, 10 μM. […]

T1 sequence (P13473 29-410 limits assumed): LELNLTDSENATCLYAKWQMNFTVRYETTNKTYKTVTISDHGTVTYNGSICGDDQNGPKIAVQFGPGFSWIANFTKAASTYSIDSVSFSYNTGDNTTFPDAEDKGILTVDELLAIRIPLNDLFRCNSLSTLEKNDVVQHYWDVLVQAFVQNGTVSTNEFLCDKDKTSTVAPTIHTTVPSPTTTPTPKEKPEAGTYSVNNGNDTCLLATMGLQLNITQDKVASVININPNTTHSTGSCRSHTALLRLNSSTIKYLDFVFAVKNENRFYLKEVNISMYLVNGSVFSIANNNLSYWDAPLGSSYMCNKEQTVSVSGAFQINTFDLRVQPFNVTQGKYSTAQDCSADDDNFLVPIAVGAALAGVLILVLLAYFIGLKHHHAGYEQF
T2 sequence (Q93008 whole entry): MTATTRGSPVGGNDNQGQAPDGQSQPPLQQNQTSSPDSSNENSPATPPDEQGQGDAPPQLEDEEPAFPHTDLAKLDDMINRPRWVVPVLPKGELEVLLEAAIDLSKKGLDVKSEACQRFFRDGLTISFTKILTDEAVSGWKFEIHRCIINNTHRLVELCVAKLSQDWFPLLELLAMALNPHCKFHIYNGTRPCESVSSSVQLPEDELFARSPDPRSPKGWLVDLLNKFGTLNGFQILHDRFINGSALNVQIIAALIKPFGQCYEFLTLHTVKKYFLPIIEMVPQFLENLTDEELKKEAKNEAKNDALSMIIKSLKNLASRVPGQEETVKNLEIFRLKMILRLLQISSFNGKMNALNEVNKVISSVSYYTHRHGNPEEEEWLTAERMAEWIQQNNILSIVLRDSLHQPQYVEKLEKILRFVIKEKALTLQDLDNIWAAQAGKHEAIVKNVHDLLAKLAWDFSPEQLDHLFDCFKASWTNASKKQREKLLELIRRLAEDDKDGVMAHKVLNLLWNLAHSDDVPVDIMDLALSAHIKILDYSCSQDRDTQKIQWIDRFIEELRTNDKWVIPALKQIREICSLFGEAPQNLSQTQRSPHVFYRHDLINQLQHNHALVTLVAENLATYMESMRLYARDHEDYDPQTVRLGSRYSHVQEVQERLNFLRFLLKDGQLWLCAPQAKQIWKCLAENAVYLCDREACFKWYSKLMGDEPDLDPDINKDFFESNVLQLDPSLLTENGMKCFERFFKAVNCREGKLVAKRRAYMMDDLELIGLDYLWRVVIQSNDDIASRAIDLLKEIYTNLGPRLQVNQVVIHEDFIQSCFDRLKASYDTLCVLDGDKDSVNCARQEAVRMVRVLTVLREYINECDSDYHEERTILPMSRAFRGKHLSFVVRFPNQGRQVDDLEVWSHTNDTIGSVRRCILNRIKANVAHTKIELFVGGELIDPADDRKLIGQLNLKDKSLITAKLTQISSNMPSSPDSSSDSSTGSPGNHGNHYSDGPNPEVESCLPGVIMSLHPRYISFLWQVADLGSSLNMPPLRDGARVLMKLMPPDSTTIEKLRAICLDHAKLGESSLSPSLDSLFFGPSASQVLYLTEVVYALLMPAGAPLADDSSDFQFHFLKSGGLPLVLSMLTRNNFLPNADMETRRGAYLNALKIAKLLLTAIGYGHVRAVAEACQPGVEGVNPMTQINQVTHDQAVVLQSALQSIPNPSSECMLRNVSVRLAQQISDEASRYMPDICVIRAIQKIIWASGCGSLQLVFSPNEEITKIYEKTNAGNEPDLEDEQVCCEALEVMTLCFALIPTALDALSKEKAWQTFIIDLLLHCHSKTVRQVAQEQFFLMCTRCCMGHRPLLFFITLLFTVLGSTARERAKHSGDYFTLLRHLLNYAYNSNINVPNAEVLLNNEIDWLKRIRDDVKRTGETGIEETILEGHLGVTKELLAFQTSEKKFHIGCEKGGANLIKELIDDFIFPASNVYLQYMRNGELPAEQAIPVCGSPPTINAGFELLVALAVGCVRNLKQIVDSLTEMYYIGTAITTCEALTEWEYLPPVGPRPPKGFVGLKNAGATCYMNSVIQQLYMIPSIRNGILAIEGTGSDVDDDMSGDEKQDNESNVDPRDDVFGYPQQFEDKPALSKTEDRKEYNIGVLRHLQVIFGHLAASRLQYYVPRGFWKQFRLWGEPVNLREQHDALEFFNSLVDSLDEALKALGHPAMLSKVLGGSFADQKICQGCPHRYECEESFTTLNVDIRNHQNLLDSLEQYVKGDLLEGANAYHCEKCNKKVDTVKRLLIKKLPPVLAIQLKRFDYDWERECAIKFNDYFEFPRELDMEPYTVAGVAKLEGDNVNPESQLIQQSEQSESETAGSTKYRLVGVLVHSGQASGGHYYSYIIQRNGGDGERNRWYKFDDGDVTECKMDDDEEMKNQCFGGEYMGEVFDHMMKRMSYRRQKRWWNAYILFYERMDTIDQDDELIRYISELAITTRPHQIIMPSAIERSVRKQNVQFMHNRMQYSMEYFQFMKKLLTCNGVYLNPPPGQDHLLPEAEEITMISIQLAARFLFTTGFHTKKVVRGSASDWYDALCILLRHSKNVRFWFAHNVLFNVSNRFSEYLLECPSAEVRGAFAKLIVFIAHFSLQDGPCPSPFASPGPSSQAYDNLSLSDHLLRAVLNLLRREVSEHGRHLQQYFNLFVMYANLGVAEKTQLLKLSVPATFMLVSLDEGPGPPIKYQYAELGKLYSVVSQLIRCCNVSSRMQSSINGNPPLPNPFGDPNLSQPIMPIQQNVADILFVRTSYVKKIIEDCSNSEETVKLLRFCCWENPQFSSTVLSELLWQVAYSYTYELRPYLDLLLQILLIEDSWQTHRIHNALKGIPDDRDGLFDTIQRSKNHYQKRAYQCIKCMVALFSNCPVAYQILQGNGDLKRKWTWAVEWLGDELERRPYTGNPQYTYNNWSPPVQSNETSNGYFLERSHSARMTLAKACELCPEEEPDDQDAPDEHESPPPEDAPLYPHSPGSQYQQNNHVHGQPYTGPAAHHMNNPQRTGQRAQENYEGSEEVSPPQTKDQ

binding result [1]	binding result [2]	binding result [3]	Binder
no binding	binds		FLAG-Gal9^R65A/R239A (other, UniProt O00182-2 1-323, looked up, also called double mutant; glycan recognition mutant; not shown: FLAG tag) MAFSGSQAPYLSPAVPFSGTIQGGLQDGLQITVNGTVLSSSGTRFAVNFQTGFSGNDIAFHFNPAFEDGGYVVCNTRQNGSWGPEERKTHMPFQKGMPFDLCFLVQSSDFKVMVNGILFVQYFHRVPFHRVDTISVNGSVQLSYISFQPPGVWPANPAPITQTVIHTVQSAPGQMFSTPAIPPMMYPHPAYPMPFITTILGGLYPSKSILLSGTVLPSAQRFHINLCSGNHIAFHLNPAFDENAVVRNTQIDNSWGSEERSLPRKMPFVRGQSFSVWILCEAHCLKVAVDGQHLFEYYHRLRNLPTINRLEVGGDIQLTHVQT
		no binding	GFP-Gal8 (other, UniProt O00214 1-317, looked up, also called Galectin 8; GFP-tagged galectin; not shown: GFP) MMLSLNNLQNIIYNPVIPFVGTIPDQLDPGTLIVIRGHVPSDADRFQVDLQNGSSMKPRADVAFHFNPRFKRAGCIVCNTLINEKWGREEITYDTPFKREKSFEIVIMVLKDKFQVAVNGKHTLLYGHRIGPEKIDTLGIYGKVNIHSIGFSFSSDLQSTQASSLELTEISRENVPKSGTPQLRLPFAARLNTPMGPGRTVVVKGEVNANAKSFNVDLLAGKSKDIALHLNPRLNIKAFVRNSFLQESWGEEERNITSFPFSPGMYFEMIIYCDVREFKVAVNGVHSLEYKHRFKELSSIDTLEINGDIHLLEVRSW
